Measurements reported in article PMC5042403, “Arabidopsis CaM1 and CaM4 Promote Nitric Oxide Production and Salt Resistance by Inhibiting S-Nitrosoglutathione Reductase via Direct Binding” (PLoS Genetics, 2016).

Molecular target: T1, GST-GSNOR (GST-tagged full-length GSNOR) (Arabidopsis thaliana, UniProt Q96533 1-379)
T1 construct: Arabidopsis thaliana S-nitrosoglutathione reductase (GSNOR, At5g43940), full-length cDNA; source: E. coli BL21, purified
Experiment: far-Western, overlay or dot blot; 1 μg of each purified GST fusion protein separated by 10% SDS-PAGE and transferred to a PVDF membrane; blot probed with 1 μg CaM4-His in 10 ml TBST with 0.1 mM CaCl2 (or 0.1 mM EGTA, with which the binding became weaker); detected with anti-His antibody
Details: both partners purified

T1 sequence (Q96533 whole entry): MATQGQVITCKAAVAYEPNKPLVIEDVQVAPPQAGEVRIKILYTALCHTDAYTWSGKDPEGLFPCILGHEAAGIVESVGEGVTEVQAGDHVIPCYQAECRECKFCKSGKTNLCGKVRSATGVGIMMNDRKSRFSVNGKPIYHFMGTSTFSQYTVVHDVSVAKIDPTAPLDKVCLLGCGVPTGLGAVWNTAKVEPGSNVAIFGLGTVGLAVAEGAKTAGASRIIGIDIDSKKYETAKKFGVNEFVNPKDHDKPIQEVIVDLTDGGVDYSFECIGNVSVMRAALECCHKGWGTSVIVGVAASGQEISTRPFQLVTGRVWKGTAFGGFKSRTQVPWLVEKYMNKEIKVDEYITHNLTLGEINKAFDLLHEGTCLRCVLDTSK

binding result: binds
B1: CaM4-His (natural protein)
chain: not shown
notes: Arabidopsis thaliana calmodulin 4 (AtCaM4, At1g66410); AtCaM1 and AtCaM4 encode the same protein; also called CaM-His; AtCaM4; source: E. coli BL21, purified; not shown: His6, C-terminal, kept
